Laboratory results: patent CN111484562A

Target: 人CD22(hCD22)蛋白 (human) (UniProt P20273)
Assay: phage ELISA, 0.5 ug/ml hCD22 coated, phage supernatant, anti-M13-HRP

Chain of UniProt P20273 (P20273 20-687 limits assumed): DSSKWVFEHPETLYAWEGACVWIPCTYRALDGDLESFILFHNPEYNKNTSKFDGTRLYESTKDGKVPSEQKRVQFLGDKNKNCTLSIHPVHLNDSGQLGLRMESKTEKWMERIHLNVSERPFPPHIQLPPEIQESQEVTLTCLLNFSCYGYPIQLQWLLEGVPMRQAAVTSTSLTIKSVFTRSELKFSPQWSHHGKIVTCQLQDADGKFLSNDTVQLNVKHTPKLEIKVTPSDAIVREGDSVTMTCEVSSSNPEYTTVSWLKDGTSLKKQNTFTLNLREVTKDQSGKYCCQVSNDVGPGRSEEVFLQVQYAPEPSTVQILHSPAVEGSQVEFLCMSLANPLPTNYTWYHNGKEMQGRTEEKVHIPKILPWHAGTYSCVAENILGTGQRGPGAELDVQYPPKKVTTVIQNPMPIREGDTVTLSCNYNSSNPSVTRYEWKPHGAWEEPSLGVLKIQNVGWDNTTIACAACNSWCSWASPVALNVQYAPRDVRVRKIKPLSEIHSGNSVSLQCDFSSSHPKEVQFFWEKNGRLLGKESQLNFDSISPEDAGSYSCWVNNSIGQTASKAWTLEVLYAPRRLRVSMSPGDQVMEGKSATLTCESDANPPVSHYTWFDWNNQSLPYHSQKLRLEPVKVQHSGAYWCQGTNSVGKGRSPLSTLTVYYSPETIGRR

OD450: > 1.5 OD450
B1: CD22抗体 (scFv单链抗体, 抗CD22) (scFv)
scFv: DIVMTQSPSSLSASVGDRVTITCRASQSINNYLNWYQQKPGKAPKLLISAASSLQSGVPSRFSGSGSGTDFTLTISSLQPEDFATYYCQQSYTTPLTFGGGTKVEIRGSTSGSGKPGSGEGSTKGQVQLQQSGPGLVESSQILSLTCAISGDSVSSNSATWNWIRLSPSRGLEWLGRTYYRSTWYNDYPASVKGRIIIDPDTSKNQFSLLLSSVTPEDTAVYYCARELVPRGATIGFDYWGQGTLVTVSS
